# Assay results reported in patent publication US7314724B2, “Therapeutic applications of laminin and laminin-derived protein fragments” (University of Washington, priority 1996, dated 2008).
# “Also recorded” adds a separate entry of the source.
# Molecular target: T1, Aβ (1-40) (Homo sapiens, UniProt P05067)
# T1 construct: 2 μg of Aβ (1-40)(Bachem Inc., Torrance, Calif. USA; Lot #WM365); purchased Bachem Inc., Torrance, Calif; Lot #WM365
# Assay: Thioflavin T fluorometry, Aβ (1-40) amyloid fibril formation
# Format: biochemical
# Conditions: for dose dependence of inhibition of Aβ fibril formation, in words: 5 nM, 15 nM, 40 nM and 100 nM laminin, 1 week (FIG. 4); for fold inhibition of Aβ (1-40) amyloid fibril formation (fluorescence lower than Aβ alone): 37° C.; for fold decrease of Aβ fibrillogenesis: comparison study (FIG. 3); for inhibition of Aβ fibril formation, in words: dose study (FIG. 4), 3 days and 7 days
# Procedure: The effects of laminin on Aβ fibrillogenesis was also determined using the previously described method of Thioflavin T fluorometry (Naiki et al, Lab. Invest. 65:104-110, 1991; Levine III, Protein Sci. 2:404-410, 1993; Levine III, Int. J. Exp. Clin. Invest. 2:1-6, 1995; Naiki and Nakakuki, Lab. Invest. 74:374-383, 1996). In this assay, Thioflavin T binds specifically to fibrillar amyloid and this binding produces a fluorescence enhancement at 480 nm that is directly proportional to the amount of amyloid fibrils formed (Naiki et al, Lab. Invest. 65:104-110, 1991; Levine III, Protein Sci. 2:404-410, 1993; Levine III, Int. J. Exp. Clin. Invest. 2:1-6, 1995; Naiki and Nakakuki, Lab. Invest. 74:374-383, 1996). In a first study, the effects of EHS laminin on Aβ (1-40) fibrillogenesis was assessed. For this study, 25 μM of freshly solubilized Aβ (1-40)(Bachem Inc., Torrance, Calif., USA; Lot #WM365) was incubated in microcentrifuge tubes at 37° C. for 1 week (in triplicate), either alone, or in the presence of 100 nM EHS laminin (Sigma Chemical Company, St. Louis, Mo., USA) in 100 mM Tris, 50 mM NaCl, pH 7.0 (TBS). 100 nM of laminin utilized for these studies represented a Aβ:laminin molar ratio of 250:1. 50 μl aliquots were then taken from each tube for analysis at 1 hr, 1 day, 3 days, and 1 week. In a second set of studies, the effects of laminin on Aβ (1 -40) fibril formation was directly compared to other basement membrane components including fibronectin, type IV collagen and perlecan. For these studies, 25 μM of freshly solubilized Aβ (1-40) was incubated in microcentrifuge tubes for 1 week (in triplicate) either alone, or in the presence of 100 nM of EHS perlecan (isolated as previously described)(Castillo et al, J. Biochem. 120:433-444, 1996), fibronectin (Sigma Chemical Company, St. Louis, Mo., USA) or type IV collagen (Sigma Chemical Company, St. Louis, Mo., USA). 50 ul aliquots were then taken for analysis at 1 hour, 1 day, 3 days and 1 week. In a third set of studies, 25 μM of freshly solubilized Aβ (1-40) was incubated in microcentrifuge tubes for 1 week (in triplicate) either alone, or in the presence of increasing concentrations of laminin (i.e. 5 nM, 15 nM, 40 nM and 100 nM). 50 μl aliquots were taken for analysis at 1 hour, 1 day, 3 days and 1 week.
# For each determination described above, following each incubation period, Aβ peptides +/− laminin, perlecan, fibronectin or type IV collagen, were added to 1.2 ml of 100 μM Thioflavin T (Sigma Chemical Co., St. Louis, Mo.) in 50 mM phosphate buffer (pH 6.0). Fluorescence emission at 480 nm was measured on a Turner instrument-model 450 fluorometer at an excitation wavelength of 450 nm. For each determination, the fluorometer was calibrated by zeroing in the presence of the Thioflavin T reagent alone, and by seting the 50 ng/ml riboflavin (Sigma Chemical Co., St. Louis, Mo.) in the Thioflavin T reagent to 1800 fluorescence units. All fluorescence determinations were based on these references and any background fluorescence given off by laminin, perlecan, type IV collagen, or fibronectin alone in the presence of the Thioflavin T reagent was always subtracted from all pertinent readings.
# T1 sequence (P05067 672-711 limits assumed): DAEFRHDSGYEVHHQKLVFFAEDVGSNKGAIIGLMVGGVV
substance,measurement,setting,value
"laminin: Engelbreth-Holm-Swarm (EHS) mouse tumor laminin (Sigma); 850 kDa basement membrane glycoprotein of A, B1 and B2 chains","dose dependence of inhibition of Aβ fibril formation, in words",,dose-dependent manner; also recorded: Significant dose-dependent inhibition
same,"dose dependence of inhibition of Aβ fibril formation, in words",listed as Laminin,dose-dependent manner
same,fold inhibition of Aβ (1-40) amyloid fibril formation (fluorescence lower than Aβ alone),"25 μM Aβ (1-40), 100 nM laminin, 1 week (FIG. 2)",27.1 fold
same,fold inhibition of Aβ (1-40) amyloid fibril formation (fluorescence lower than Aβ alone),"25 μM Aβ (1-40), 100 nM laminin, 1 hour (FIG. 2)",2.9 fold
same,fold inhibition of Aβ (1-40) amyloid fibril formation (fluorescence lower than Aβ alone),"25 μM Aβ (1-40), 100 nM laminin, 1 day (FIG. 2)",4.6 fold
same,fold inhibition of Aβ (1-40) amyloid fibril formation (fluorescence lower than Aβ alone),"25 μM Aβ (1-40), 100 nM laminin, 3 days (FIG. 2)",30.6 fold
same,"effect on Aβ (1-40) fibrillogenesis, in words","comparison of basement membrane components (FIG. 3), 25 μM Aβ (1-40), 100 nM, 1 hour to 1 week",potent inhibitory effect
same,fold decrease of Aβ fibrillogenesis,"25 μM Aβ (1-40), 100 nM, 1 week",21 fold
same,fold decrease of Aβ fibrillogenesis,"25 μM Aβ (1-40), 100 nM, 1 day",9 fold
same,fold decrease of Aβ fibrillogenesis,"25 μM Aβ (1-40), 100 nM, 3 days",9 fold
same,"inhibition of Aβ fibril formation, in words",40 nM laminin,significantly inhibited
same,"inhibition of Aβ fibril formation, in words","100 nM laminin, 1 hour, 1 day",significantly inhibited
